The assay concerns the target recombinant YBX1 with a C-terminal 6×His tag (UniProt P67809 1-324). As to the kind of experiment: BLI. On the technique in general: Biolayer interferometry detects binding as a change in optical thickness at a sensor tip.

Sequence of recombinant YBX1 with a C-terminal 6×His tag (P67809 whole entry): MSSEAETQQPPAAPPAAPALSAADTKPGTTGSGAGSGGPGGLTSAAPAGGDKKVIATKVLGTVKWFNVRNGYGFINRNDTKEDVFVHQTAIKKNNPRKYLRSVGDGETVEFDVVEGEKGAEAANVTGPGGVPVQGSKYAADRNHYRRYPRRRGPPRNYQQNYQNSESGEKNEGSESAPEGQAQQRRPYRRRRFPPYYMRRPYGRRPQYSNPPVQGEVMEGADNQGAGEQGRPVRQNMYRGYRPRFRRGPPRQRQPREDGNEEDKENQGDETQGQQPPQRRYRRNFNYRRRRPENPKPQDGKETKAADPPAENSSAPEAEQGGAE

B1: recombinant GSDME with a C-terminal 6×His tag (natural protein)
chain: MFAKATRNFLREVDADGDLIAVSNLNDSDKLQLLSLVTKKKRFWCWQRPKYQFLSLTLGDVLIEDQFPSPVVVESDFVKYEGKFANHVSGTLETALGKVKLNLGGSSRVESQSSFGTLRKQEVDLQQLIRDSAERTINLRNPVLQQVLEGRNEVLCVLTQKITTMQKCVISEHMQVEEKCGGIVGIQTKTVQVSATEDGNVTKDSNVVLEIPAATTIAYGVIELYVKLDGQFEFCLLRGKQGGFENKKRIDSVYLDPLVFREFAFIDMPDAAHGISSQDGPLSVLKQATLLLERNFHPFAELPEPQQTALSDIFQAVLFDDELLMVLEPVCDDLVSGLSPTVAVLGELKPRQQQDLVAFLQLVGCSLQGGCPGPEDAGSKQLFMTAYFLVSALAEMPDSAAALLGTCCKLQIIPTLCHLLRALSDDGVSDLEDPTLTPLKDTERFGIVQRLFASADISLERLKSSVKAVILKDSKVFPLLLCITLNGLCALGREHS
The term Kd denotes the constant that tells how readily two partners part at equilibrium. Turning to B1, the Kd was 0.0248 nM.
